Laboratory results as given in the supplement of paper PMC11246515.
± gives the standard deviation of the averaged measurements.

Test: total protein half-life in vivo (active degradation + dilution); higher = more stable protein
[1] = E. coli NCM3722 delta-clpP delta-lon delta-hslV, growth: N-lim chemostat, doubling time 6 h
[2] = E. coli NCM3722 delta-clpP, growth: N-lim chemostat, doubling time 6 h
[3] = E. coli NCM3722 delta-hslV, growth: N-lim chemostat, doubling time 6 h
[4] = E. coli NCM3722 delta-lon, growth: N-lim chemostat, doubling time 6 h
[5] = E. coli NCM3722 delta-smpB, growth: N-lim chemostat, doubling time 6 h
[6] = wild type E. coli NCM3722, growth: C-lim chemostat, doubling time 3 h
[7] = wild type E. coli NCM3722, growth: C-lim chemostat, doubling time 6 h
[8] = wild type E. coli NCM3722, growth: C-lim chemostat, doubling time 12 h
[9] = wild type E. coli NCM3722, growth: N-lim chemostat, doubling time 6 h
[10] = wild type E. coli NCM3722, growth: N-lim chemostat, doubling time 12 h
[11] = wild type E. coli NCM3722, growth: P-lim chemostat, doubling time 6 h
[12] = wild type E. coli NCM3722, growth: P-lim chemostat, doubling time 12 h

With “MQENSPLLQLQNVGYLAGDAKILNNINFSLRAGEFKLITGPSGCGKSTLLKIVASLISPTSGTLLFEGEDVSTLKPEIYRQQVSYCAQTPTLFGDTVYDNLIFPWQIRNRQPDPAIFLDFLERFALPDSILTKNIAELSGGEKQRISLIRNLQFMPKVLLLDEITSALDESNKHNVNEMIHRYVREQNIAVLWVTHDKDEINHADKVITLQPHAGEMQEARYELA” the “total protein half-life in vivo” value [1] was 5.05 ± 0.21 h, the “total protein half-life in vivo” value [2] was 5 ± 0.8 h and the “total protein half-life in vivo” value [3] was 5.16 ± 0.41 h. The “total protein half-life in vivo” value [4] was 4.59 ± 0.41 h, the “total protein half-life in vivo” value [5] was 6.21 ± 1.8 h and the “total protein half-life in vivo” value [6] was 2.7 ± 0.38 h. For the same sequence, the “total protein half-life in vivo” value [7] was 6.58 ± 0.68 h, the “total protein half-life in vivo” value [8] was 9.76 h and the “total protein half-life in vivo” value [9] was 5.2 ± 0.14 h. The “total protein half-life in vivo” value [10] was 9.23 ± 0.8 h, the “total protein half-life in vivo” value [11] was 5.43 ± 0.2 h and the “total protein half-life in vivo” value [12] was 11.7 ± 1.6 h.
With “MWIGIISLFPEMFRAITDYGVTGRAVKNGLLSIQSWSPRDFTHDRHRTVDDRPYGGGPGMLMMVQPLRDAIHAAKAAAGEGAKVIYLSPQGRKLDQAGVSELATNQKLILVCGRYEGIDERVIQTEIDEEWSIGDYVLSGGELPAMTLIDSVSRFIPGVLGHEASATEDSFAEGLLDCPHYTRPEVLEGMEVPPVLLSGNHAEIRRWRLKQSLGRTWLRRPELLENLALTEEQARLLAEFKTEHAQQQHKHDGMA [P0A873]” the “total protein half-life in vivo” value [1] was 4.44 ± 1.1 h, the “total protein half-life in vivo” value [2] was 4.01 ± 0.084 h and the “total protein half-life in vivo” value [3] was 4.21 ± 0.043 h. The “total protein half-life in vivo” value [4] was 4.7 ± 0.54 h, the “total protein half-life in vivo” value [5] was 4.21 ± 0.33 h and the “total protein half-life in vivo” value [6] was 3.04 ± 0.49 h. The “total protein half-life in vivo” value [7] was 5.88 ± 0.59 h, the “total protein half-life in vivo” value [8] was 8.46 ± 1.3 h and the “total protein half-life in vivo” value [9] was 4.25 ± 0.34 h. The “total protein half-life in vivo” value [10] was 7.45 ± 0.68 h, the “total protein half-life in vivo” value [11] was 5.85 ± 0.19 h and the “total protein half-life in vivo” value [12] was 10.4 ± 0.29 h.
In the case of “MGLCSRYKSLTCNSCSMHCQIMPEESPRLQYCANSCFCMWPEESSYFNRGVVEGILTKNHNARLSGYIFVDFSVSFLRLFLEKDWIDYLASTDMGIVLVSDRNMQSLANYWRKHNSAISAVIYNDDGLDVANEKIRQLFIGRYLSFTGGNTLTQMEFTIMGYMVSGYNPYQIAEVLDMDIRSIYAYKQRIEKRMGGKINELFIRSHSVQH”, the “total protein half-life in vivo” value [1] is reported as 4.5 ± 2.7 h.
In the case of “MSHQLTFADSEFSSKRRQTRKEIFLSRMEQILPWQNMVEVIEPFYPKAGNGRRPYPLETMLRIHCMQHWYNLSDGAMEDALYEIASMRLFARLSLDSALPDRTTIMNFRHLLEQHQLARQLFKTINRWLAEAGVMMTQGTLVDATIIEAPSSTKNKEQQRDPEMHQTKKGNQWHFGMKAHIGVDAKSGLTHSLVTTAANEHDLNQLGNLLHGEEQFVSADAGYQGAPQREELAEVDVDWLIAERPGKVRTLKQHPRKNKTAINIEYMKASIRARVEHPFRIIKRQFGFVKARYKGLLKNDNQLAMLFTLANLFRADQMIRQWERSH [P0CE51]”, the “total protein half-life in vivo” value [1] is reported as 3.8 ± 0.34 h, the “total protein half-life in vivo” value [5] is reported as 0.495 h and the “total protein half-life in vivo” value [6] is reported as greater than 4 h. The “total protein half-life in vivo” value [7] was 0.676 h, the “total protein half-life in vivo” value [8] was 3.18 h and the “total protein half-life in vivo” value [9] was 0.532 h. For the same sequence, the “total protein half-life in vivo” value [11] was 0.426 h and the “total protein half-life in vivo” value [12] was 0.648 h.
With “MTDMNILDLFLKASLLVKLIMLILIGFSIASWAIIIQRTRILNAAAREAEAFEDKFWSGIELSRLYQESQGKRDNLTGSEQIFYSGFKEFVRLHRANSHAPEAVVEGASRAMRISMNRELENLETHIPFLGTVGSISPYIGLFGTVWGIMHAFIALGAVKQATLQMVAPGIAEALIATAIGLFAAIPAVMAYNRLNQRVNKLELNYDNFMEEFTAILHRQAFTVSESNKG [P0ABU9]” the “total protein half-life in vivo” value [1] was 5.8 ± 0.98 h, the “total protein half-life in vivo” value [2] was 6.17 ± 0.19 h and the “total protein half-life in vivo” value [3] was 7.1 ± 0.95 h. The “total protein half-life in vivo” value [4] was 6.83 ± 1.3 h, the “total protein half-life in vivo” value [5] was 6.07 ± 0.051 h and the “total protein half-life in vivo” value [6] was 3.13 ± 0.22 h. For the same sequence, the “total protein half-life in vivo” value [7] was 6.078 ± 0.021 h, the “total protein half-life in vivo” value [8] was 11.9 ± 1.4 h and the “total protein half-life in vivo” value [9] was 5.74 ± 0.16 h. For the same sequence, the “total protein half-life in vivo” value [10] was 11.6 ± 1.6 h, the “total protein half-life in vivo” value [11] was 5.93 ± 0.14 h and the “total protein half-life in vivo” value [12] was 12.7 ± 0.76 h.
In the case of “MNKETQPIDRETLLKEANKIIREHEDTLAGIEATGVTQRNGVLVFTGDYFLDEQGLPTAKSTAVFNMFKHLAHVLSEKYHLVD [P0AB61]”, the “total protein half-life in vivo” value [1] is reported as 5.24 ± 0.27 h, the “total protein half-life in vivo” value [2] is reported as 3.59 h and the “total protein half-life in vivo” value [3] is reported as 3.12 ± 0.036 h. For the same sequence, the “total protein half-life in vivo” value [4] was 3.65 ± 0.14 h, the “total protein half-life in vivo” value [5] was 2.91 ± 0.23 h and the “total protein half-life in vivo” value [6] was 2.64 h. For the same sequence, the “total protein half-life in vivo” value [7] was 4.89 ± 0.3 h, the “total protein half-life in vivo” value [8] was 9.62 ± 3.9 h and the “total protein half-life in vivo” value [9] was 2.5 ± 0.063 h. The “total protein half-life in vivo” value [10] was 4.72 h and the “total protein half-life in vivo” value [11] was 6.02 h.
With “MDVRQSIHSAHAKTLDTQGLRNEFLVEKVFVADEYTMVYSHIDRIIVGGIMPITKTVSVGGEVGKQLGVSYFLERRELGVINIGGAGTITVDGQCYEIGHRDALYVGKGAKEVVFASIDTGTPAKFYYNCAPAHTTYPTKKVTPDEVSPVTLGDNLTSNRRTINKYFVPDVLETCQLSMGLTELAPGNLWNTMPCHTHERRMEVYFYFNMDDDACVFHMMGQPQETRHIVMHNEQAVISPSWSIHSGVGTKAYTFIWGMVGENQVFDDMDHVAVKDLR” the “total protein half-life in vivo” value [1] was 5.44 ± 1.1 h, the “total protein half-life in vivo” value [2] was 3.55 h and the “total protein half-life in vivo” value [3] was 3.6 ± 0.5 h. The “total protein half-life in vivo” value [4] was 3.28 ± 0.7 h, the “total protein half-life in vivo” value [5] was 3.71 ± 0.51 h and the “total protein half-life in vivo” value [6] was 3.43 ± 0.61 h. The “total protein half-life in vivo” value [7] was 6.02 ± 0.23 h, the “total protein half-life in vivo” value [8] was 10.2 ± 0.68 h and the “total protein half-life in vivo” value [9] was 4.18 h. The “total protein half-life in vivo” value [10] was 5.64 ± 0.57 h, the “total protein half-life in vivo” value [11] was 5.56 h and the “total protein half-life in vivo” value [12] was 11.6 ± 0.6 h.
